# In article PMC8430995:
# Molecular target: Akt WT (transfected) (UniProt P31749)
# Experiment: co-immunoprecipitation (K8/K18 IP, Akt immunoblot, quantified)
# Details: BHK-21 cells transfected with Akt WT, K8 WT and the K18 mutant; parent: est. 1.0; read off a plot
# Sequence of Akt WT (transfected) (P31749 whole entry): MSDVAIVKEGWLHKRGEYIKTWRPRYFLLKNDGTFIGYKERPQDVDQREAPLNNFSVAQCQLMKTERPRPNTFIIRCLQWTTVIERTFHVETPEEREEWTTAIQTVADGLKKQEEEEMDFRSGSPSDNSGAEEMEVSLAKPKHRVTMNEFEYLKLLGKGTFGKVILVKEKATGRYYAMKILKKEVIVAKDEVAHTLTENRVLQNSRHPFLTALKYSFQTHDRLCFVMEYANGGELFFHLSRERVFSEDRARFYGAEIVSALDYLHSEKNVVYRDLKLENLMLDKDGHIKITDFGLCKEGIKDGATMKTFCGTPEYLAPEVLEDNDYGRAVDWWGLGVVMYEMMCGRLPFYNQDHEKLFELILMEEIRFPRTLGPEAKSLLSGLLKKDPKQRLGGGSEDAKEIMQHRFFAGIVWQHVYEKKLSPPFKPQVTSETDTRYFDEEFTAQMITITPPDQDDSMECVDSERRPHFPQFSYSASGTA
# Sequence of K8 WT/K18 WT (transfected) (from UniProt P05787;P05783) K18:T294M (P05787 whole entry, stated change not applied): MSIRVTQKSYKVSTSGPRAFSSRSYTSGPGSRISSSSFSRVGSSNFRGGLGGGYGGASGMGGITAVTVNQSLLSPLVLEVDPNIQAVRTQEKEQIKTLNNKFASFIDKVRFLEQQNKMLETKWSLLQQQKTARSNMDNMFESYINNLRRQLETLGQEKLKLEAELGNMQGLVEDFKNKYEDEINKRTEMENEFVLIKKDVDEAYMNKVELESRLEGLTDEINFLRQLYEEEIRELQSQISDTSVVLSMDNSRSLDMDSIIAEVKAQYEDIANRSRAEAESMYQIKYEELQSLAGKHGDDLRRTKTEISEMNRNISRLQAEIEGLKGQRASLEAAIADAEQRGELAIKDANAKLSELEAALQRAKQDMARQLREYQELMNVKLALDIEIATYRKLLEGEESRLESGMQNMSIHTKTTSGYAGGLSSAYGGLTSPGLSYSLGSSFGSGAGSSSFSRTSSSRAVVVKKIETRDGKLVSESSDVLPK
# Sequence of K8 WT/K18 WT (transfected) (from UniProt P05787;P05783) K18:T294M (P05783 whole entry, stated change not applied): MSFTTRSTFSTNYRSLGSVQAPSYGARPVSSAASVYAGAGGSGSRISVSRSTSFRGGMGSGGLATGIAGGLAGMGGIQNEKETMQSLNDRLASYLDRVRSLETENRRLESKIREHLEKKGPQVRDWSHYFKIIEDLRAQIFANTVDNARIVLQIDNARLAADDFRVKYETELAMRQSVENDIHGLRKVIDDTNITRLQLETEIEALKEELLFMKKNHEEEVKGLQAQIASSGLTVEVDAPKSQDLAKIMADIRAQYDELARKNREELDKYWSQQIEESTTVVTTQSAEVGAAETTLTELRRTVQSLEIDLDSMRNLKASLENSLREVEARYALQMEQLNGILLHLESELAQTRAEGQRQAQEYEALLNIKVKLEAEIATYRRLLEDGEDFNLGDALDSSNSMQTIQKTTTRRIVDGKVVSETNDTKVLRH
# Sequence of K8 WT/K18 WT (transfected) (from UniProt P05787;P05783) K8:R341H (P05787 whole entry, stated change not applied): as the sequence (P05787 whole entry, stated change not applied) above
# Sequence of K8 WT/K18 WT (transfected) (from UniProt P05787;P05783) K8:R341H (P05783 whole entry, stated change not applied): as the sequence (P05783 whole entry, stated change not applied) above
# Sequence of K8 WT/K18 WT (transfected) (from UniProt P05787;P05783) K8:Y54H (P05787 whole entry, stated change not applied): as the sequence (P05787 whole entry, stated change not applied) above
# Sequence of K8 WT/K18 WT (transfected) (from UniProt P05787;P05783) K8:Y54H (P05783 whole entry, stated change not applied): as the sequence (P05783 whole entry, stated change not applied) above
# Sequence of K8 WT/K18 WT (transfected) (from UniProt P05787;P05783) K18:Q284R (P05787 whole entry, stated change not applied): as the sequence (P05787 whole entry, stated change not applied) above
# Sequence of K8 WT/K18 WT (transfected) (from UniProt P05787;P05783) K18:Q284R (P05783 whole entry, stated change not applied): as the sequence (P05783 whole entry, stated change not applied) above
# Sequence of K8 WT/K18 WT (transfected) (from UniProt P05787;P05783) K8:R454C (P05787 whole entry, stated change not applied): as the sequence (P05787 whole entry, stated change not applied) above
# Sequence of K8 WT/K18 WT (transfected) (from UniProt P05787;P05783) K8:R454C (P05783 whole entry, stated change not applied): as the sequence (P05783 whole entry, stated change not applied) above
# Sequence of K8 WT/K18 WT (transfected) (from UniProt P05787;P05783) K18:I149V (P05787 whole entry, stated change not applied): as the sequence (P05787 whole entry, stated change not applied) above
# Sequence of K8 WT/K18 WT (transfected) (from UniProt P05787;P05783) K18:I149V (P05783 whole entry, stated change not applied): as the sequence (P05783 whole entry, stated change not applied) above
# Sequence of K8 WT/K18 WT (transfected) (from UniProt P05787;P05783) K8:A319S (P05787 whole entry, stated change not applied): as the sequence (P05787 whole entry, stated change not applied) above
# Sequence of K8 WT/K18 WT (transfected) (from UniProt P05787;P05783) K8:A319S (P05783 whole entry, stated change not applied): as the sequence (P05783 whole entry, stated change not applied) above
row,ratio to parent,Substance
1,1.1,K8 WT/K18 WT (transfected) (from UniProt P05787;P05783) K18:I149V
2,1.3,K8 WT/K18 WT (transfected) (from UniProt P05787;P05783) K18:Q284R
3,1.6,K8 WT/K18 WT (transfected) (from UniProt P05787;P05783) K18:T294M

# Same assay, conditions: BHK-21 cells transfected with Akt WT, K18 WT and the K8 mutant; parent: est. 1.0; read off a plot
row,ratio to parent,Substance
1,0.93,K8 WT/K18 WT (transfected) (from UniProt P05787;P05783) K8:A319S
2,0.92,K8 WT/K18 WT (transfected) (from UniProt P05787;P05783) K8:R341H
3,1.1,K8 WT/K18 WT (transfected) (from UniProt P05787;P05783) K8:R454C
4,1.1,K8 WT/K18 WT (transfected) (from UniProt P05787;P05783) K8:Y54H
